According to the supplement of paper PMC5998384:

Assays:
HeLa Kyoto [1] = experiment: solubility in G1/S (NP-40 vs SDS abundance) (log2 ratio); higher = more soluble; conditions: cell cycle stage: G1/S
HeLa Kyoto [2] = experiment: solubility change mitosis vs G1/S (difference of NP-40 vs SDS log2 ratios) (log2 ratio difference); higher = more soluble in mitosis
HeLa Kyoto [3] = experiment: melting temperature (median over replicates), in situ; higher = more thermally stable
HeLa Kyoto [4] = experiment: thermal stability score vs G1/S (z-score of summed log2 fold changes over temperatures); higher = more thermally stable than in G1/S
[5] = cell cycle stage: early G1 (4.5 h after nocodazole release)
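Wherever melting temperature (median over replicates), in situ is given: HeLa Kyoto cells synchronized by double thymidine or nocodazole block, proteins quantified by TMT10plex mass spectrometry, three independent biological replicates.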
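Wherever solubility change mitosis vs G1/S (difference of NP-40 vs SDS log2 ratios) is given: synchronized HeLa Kyoto cells (double thymidine block for G1/S, nocodazole release for mitosis), protein amounts in NP-40 versus SDS lysates quantified by mass spectrometry, three biological replicates.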
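Wherever solubility in G1/S (NP-40 vs SDS abundance) is given: HeLa Kyoto cells arrested at G1/S by double thymidine block, proteins quantified by TMT10plex mass spectrometry in mild NP-40 versus SDS extracts, three biological replicates.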
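Wherever thermal stability score vs G1/S (z-score of summed log2 fold changes over temperatures) is given: synchronized HeLa Kyoto cells, proteins quantified by TMT10plex mass spectrometry, three biological replicates, mitosis taken 0.5 h after nocodazole release, G1/S directly after double thymidine block.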

Sequence | solubility in G1/S (log2) (HeLa Kyoto [1]) | solubility change mitosis (log2) (HeLa Kyoto [2]) | melting temperature (HeLa Kyoto [3]; cell cycle stage: G1/S) [°C] | melting temperature (HeLa Kyoto [3]; cell cycle stage: mitosis) [°C] | thermal stability score (HeLa Kyoto [4]; [5]) | thermal stability score (HeLa Kyoto [4]; cell cycle stage: mitosis)
MHVIKRDGRQERVMFDKITSRIQKLCYGLNMDFVDPAQITMKVIQGLYSGVTTVELDTLAAETAATLTTKHPDYAILAARIAVSNLHKETKKVFSDVMEDLYNYINPHNGKHSPMVAKSTLDIVLANKDRLNSAIIYDRDFSYNYFGFKTLERSYLLKINGKVAERPQHMLMRVSVGIHKEDIDAAIETYNLLSERWFTHASPTLFNAGTNRPQLSSCFLLSMKDDSIEGIYDTLKQCALISKSAGGIGVAVSCIRATGSYIAGTNGNSNGLVPMLRVYNNTARYVDQGGNKRPGAFAIYLEPWHLDIFEFLDLKKNTGKEEQRARDLFFALWIPDLFMKRVETNQDWSLMCPNECPGLDEVWGEEFEKLYASYEKQGRVRKVVKAQQLWYAIIESQTETGTPYMLYKDSCNRKSNQQNLGTIKCSNLCTEIVEYTSKDEVAVCNLASLALNMYVTSEHTYDFKKLAEVTKVVVRNLNKIIDINYYPVPEACLSNKRHRPIGIGVQGLADAFILMRYPFESAEAQLLNKQIFETIYYGALEASCDLAKEQGPYETYEGSPVSKGILQYDMWNVTPTDLWDWKVLKEKIAKYGIRNSLLIAPMPTASTAQILGNNESIEPYTSNIYTRRVLSGEFQIVNPHLLKDLTERGLWHEEMKNQIIACNGSIQSIPEIPDDLKQLYKTVWEISQKTVLKMAAERGAFIDQSQSLNIHIAEPNYGKLTSMHFYGWKQGLKTGMYYLRTRPAANPIQFTLNKEKLKDKEKVSKEEEEKERNTAAMVCSLENRDECLMCGS [RRM1] | -0.148 | -0.154 | 56.1 | 53.8 | -8.92 | -8.47
MIALFNKLLDWFKALFWKEEMELTLVGLQYSGKTTFVNVIASGQFNEDMIPTVGFNMRKITKGNVTIKLWDIGGQPRFRSMWERYCRGVSAIVYMVDAADQEKIEASKNELHNLLDKPQLQGIPVLVLGNKRDLPGALDEKELIEKMNLSAIQDREICCYSISCKEKDNIDITLQWLIQHSKSRRS [ARL8A] | -0.0955 | -0.116 | 54.3 | 54.4 | -1.51 | -1.71
MICTFLRAVQYTEKLHRSSAKRLLLPYIVLNKACLKTEPSLRCGLQYQKKTLRPRCILGVTQKTIWTQGPSPRKAKEDGSKQVSVHRSQRGGTAVPTSQKVKEAGRDFTYLIVVLFGISITGGLFYTIFKELFSSSSPSKIYGRALEKCRSHPEVIGVFGESVKGYGEVTRRGRRQHVRFTEYVKDGLKHTCVKFYIEGSEPGKQGTVYAQVKENPGSGEYDFRYIFVEIESYPRRTIIIEDNRSQDD [TIMM21] | -0.209 | 0.0282 | 52.1 | 51.6 | 0.315 | -0.0739
MIEMAAEKEPFLVPAPPPPLKDESGGGGGPTVPPHQEAASGELRGGTERGPGRCAPSAGSPAAAVGRESPGAAATSSSGPQAQQHRGGGPQAQSHGEARLSDPPGRAAPPDVGEERRGGGGTELGPPAPPRPRNGYQPHRPPGGGGGKRRNSCNVGGGGGGFKHPAFKRRRRVNSDCDSVLPSNFLLGGNIFDPLNLNSLLDEEVSRTLNAETPKSSPLPAKGRDPVEILIPKDITDPLSLNTCTDEGHVVLASPLKTGRKRHRHRGQHHQQQQAAGGSESHPVPPTAPLTPLLHGEGASQQPRHRGQNRDAPQPYELNTAINCRDEVVSPLPSALQGPSGSLSAPPAASVISAPPSSSSRHRKRRRTSSKSEAGARGGGQGSKEKGRGSWGGRHHHHHPLPAAGFKKQQRKFQYGNYCKYYGYRNPSCEDGRLRVLKPEWFRGRDVLDLGCNVGHLTLSIACKWGPSRMVGLDIDSRLIHSARQNIRHYLSEELRLPPQTLEGDPGAEGEEGTTTVRKRSCFPASLTASRGPIAAPQVPLDGADTSVFPNNVVFVTGNYVLDRDDLVEAQTPEYDVVLCLSLTKWVHLNWGDEGLKRMFRRIYRHLRPGGILVLEPQPWSSYGKRKTLTETIYKNYYRIQLKPEQFSSYLTSPDVGFSSYELVATPHNTSKGFQRPVYLFHKARSPSH [MEPCE] | -0.115 | 0.364 | 47.8 | 49.8 | 2.47 | 4.6
MIFPVARYALRWLRRPEDRAFSRAAMEMALRGVRKVLCVAEKNDAAKGIADLLSNGRMRRREGLSKFNKIYEFDYHLYGQNVTMVMTSVSGHLLAHDFQMQFRKWQSCNPLVLFEAEIEKYCPENFVDIKKTLERETRQCQALVIWTDCDREGENIGFEIIHVCKAVKPNLQVLRARFSEITPHAVRTACENLTEPDQRVSDAVDVRQELDLRIGAAFTRFQTLRLQRIFPEVLAEQLISYGSCQFPTLGFVVERFKAIQAFVPEIFHRIKVTHDHKDGIVEFNWKRHRLFNHTACLVLYQLCVEDPMATVVEVRSKPKSKWRPQALDTVELEKLASRKLRINAKETMRIAEKLYTQGYISYPRTETNIFPRDLNLTVLVEQQTPDPRWGAFAQSILERGGPTPRNGNKSDQAHPPIHPTKYTNNLQGDEQRLYEFIVRHFLACCSQDAQGQETTVEIDIAQERFVAHGLMILARNYLDVYPYDHWSDKILPVYEQGSHFQPSTVEMVDGETSPPKLLTEADLIALMEKHGIGTDATHAEHIETIKARMYVGLTPDKRFLPGHLGMGLVEGYDSMGYEMSKPDLRAELEADLKLICDGKKDKFVVLRQQVQKYKQVFIEAVAKAKKLDEALAQYFGNGTELAQQEDIYPAMPEPIRKCPQCNKDMVLKTKKNGGFYLSCMGFPECRSAVWLPDSVLEASRDSSVCPVCQPHPVYRLKLKFKRGSLPPTMPLEFVCCIGGCDDTLREILDLRFSGGPPRASQPSGRLQANQSLNRMDNSQHPQPADSRQTGSSKALAQTLPPPTAAGESNSVTCNCGQEAVLLTVRKEGPNRGRQFFKCNGGSCNFFLWADSPNPGAGGPPALAYRPLGASLGCPPGPGIHLGGFGNPGDGSGSGTSCLCSQPSVTRTVQKDGPNKGRQFHTCAKPREQQCGFFQWVDENTAPGTSGAPSWTGDRGRTLESEARSKRPRASSSDMGSTAKKPRKCSLCHQPGHTRPFCPQNR [TOP3A] | -0.336 | 0.0865 | 46.9 | 48.4 | 1.18 | 1.85
MIIPSLEELDSLKYSDLQNLAKSLGLRANLRATKLLKALKGYIKHEARKGNENQDESQTSASSCDETEIQISNQEEAERQPLGHVTKTRRRCKTVRVDPDSQQNHSEIKISNPTEFQNHEKQESQDLRATAKVPSPPDEHQEAENAVSSGNRDSKVPSEGKKSLYTDESSKPGKNKRTAITTPNFKKLHEAHFKEMESIDQYIERKKKHFEEHNSMNELKQQPINKGGVRTPVPPRGRLSVASTPISQRRSQGRSCGPASQSTLGLKGSLKRSAISAAKTGVRFSAATKDNEHKRSLTKTPARKSAHVTVSGGTPKGEAVLGTHKLKTITGNSAAVITPFKLTTEATQTPVSNKKPVFDLKASLSRPLNYEPHKGKLKPWGQSKENNYLNQHVNRINFYKKTYKQPHLQTKEEQRKKREQERKEKKAKVLGMRRGLILAED [NUSAP1] | -0.327 | 0.535 | 54.7 | 54.6 | 1.75 | -5.46
MIKLFSLKQQKKEEESAGGTKGSSKKASAAQLRIQKDINELNLPKTCDISFSDPDDLLNFKLVICPDEGFYKSGKFVFSFKVGQGYPHDPPKVKCETMVYHPNIDLEGNVCLNILREDWKPVLTINSIIYGLQYLFLEPNPEDPLNKEAAEVLQNNRRLFEQNVQRSMRGGYIGSTYFERCLK [UBE2M] | 0.576 | -0.0392 | 51.1 | 51.2 | -1.49 | -1.29
MIPLLLAALLCVPAGALTCYGDSGQPVDWFVVYKLPALRGSGEAAQRGLQYKYLDESSGGWRDGRALINSPEGAVGRSLQPLYRSNTSQLAFLLYNDQPPQPSKAQDSSMRGHTKGVLLLDHDGGFWLVHSVPNFPPPASSAAYSWPHSACTYGQTLLCVSFPFAQFSKMGKQLTYTYPWVYNYQLEGIFAQEFPDLENVVKGHHVSQEPWNSSITLTSQAGAVFQSFAKFSKFGDDLYSGWLAAALGTNLQVQFWHKTVGILPSNCSDIWQVLNVNQIAFPGPAGPSFNSTEDHSKWCVSPKGPWTCVGDMNRNQGEEQRGGGTLCAQLPALWKAFQPLVKNYQPCNGMARKPSRAYKI [DNASE2] | 0.364 | -0.0918 | 56.2 | 56.1 | -1.39 | -2.33
MIRAAPPPLFLLLLLLLLLVSWASRGEAAPDQDEIQRLPGLAKQPSFRQYSGYLKGSGSKHLHYWFVESQKDPENSPVVLWLNGGPGCSSLDGLLTEHGPFLVQPDGVTLEYNPYSWNLIANVLYLESPAGVGFSYSDDKFYATNDTEVAQSNFEALQDFFRLFPEYKNNKLFLTGESYAGIYIPTLAVLVMQDPSMNLQGLAVGNGLSSYEQNDNSLVYFAYYHGLLGNRLWSSLQTHCCSQNKCNFYDNKDLECVTNLQEVARIVGNSGLNIYNLYAPCAGGVPSHFRYEKDTVVVQDLGNIFTRLPLKRMWHQALLRSGDKVRMDPPCTNTTAASTYLNNPYVRKALNIPEQLPQWDMCNFLVNLQYRRLYRSMNSQYLKLLSSQKYQILLYNGDVDMACNFMGDEWFVDSLNQKMEVQRRPWLVKYGDSGEQIAGFVKEFSHIAFLTIKGAGHMVPTDKPLAAFTMFSRFLNKQPY [CTSA] | 0.138 | -0.0924 | 54.5 | 57 | 0.798 | 2.87
MKALDEPPYLTVGTDVSAKYRGAFCEAKIKTAKRLVKVKVTFRHDSSTVEVQDDHIKGPLKVGAIVEVKNLDGAYQEAVINKLTDASWYTVVFDDGDEKTLRRSSLCLKGERHFAESETLDQLPLTNPEHFGTPVIGKKTNRGRRSNHIPEEESSSSSSDEDEDDRKQIDELLGKVVCVDYISLDKKKALWFPALVVCPDCSDEIAVKKDNILVRSFKDGKFTSVPRKDVHEITSDTAPKPDAVLKQAFEQALEFHKSRTIPANWKTELKEDSSSSEAEEEEEEEDDEKEKEDNSSEEEEEIEPFPEERENFLQQLYKFMEDRGTPINKRPVLGYRNLNLFKLFRLVHKLGGFDNIESGAVWKQVYQDLGIPVLNSAAGYNVKCAYKKYLYGFEEYCRSANIEFQMALPEKVVNKQCKECENVKEIKVKEENETEIKEIKMEEERNIIPREEKPIEDEIERKENIKPSLGSKKNLLESIPTHSDQEKEVNIKKPEDNENLDDKDDDTTRVDESLNIKVEAEEEKAKSGDETNKEEDEDDEEAEEEEEEEEEEEDEDDDDNNEEEEFECYPPGMKVQVRYGRGKNQKMYEASIKDSDVEGGEVLYLVHYCGWNVRYDEWIKADKIVRPADKNVPKIKHRKKIKNKLDKEKDKDEKYSPKNCKLRRLSKPPFQTNPSPEMVSKLDLTDAKNSDTAHIKSIEITSILNGLQASESSAEDSEQEDERGAQDMDNNGKEESKIDHLTNNRNDLISKEEQNSSSLLEENKVHADLVISKPVSKSPERLRKDIEVLSEDTDYEEDEVTKKRKDVKKDTTDKSSKPQIKRGKRRYCNTEECLKTGSPGKKEEKAKNKESLCMENSSNSSSDEDEEETKAKMTPTKKYNGLEEKRKSLRTTGFYSGFSEVAEKRIKLLNNSDERLQNSRAKDRKDVWSSIQGQWPKKTLKELFSDSDTEAAASPPHPAPEEGVAEESLQTVAEEESCSPSVELEKPPPVNVDSKPIEEKTVEVNDRKAEFPSSGSNSVLNTPPTTPESPSSVTVTEGSRQQSSVTVSEPLAPNQEEVRSIKSETDSTIEVDSVAGELQDLQSEGNSSPAGFDASVSSSSSNQPEPEHPEKACTGQKRVKDAQGGGSSSKKQKRSHKATVVNNKKKGKGTNSSDSEELSAGESITKSQPVKSVSTGMKSHSTKSPARTQSPGKCGKNGDKDPDLKEPSNRLPKVYKWSFQMSDLENMTSAERITILQEKLQEIRKHYLSLKSEVASIDRRRKRLKKKERESAATSSSSSSPSSSSITAAVMLTLAEPSMSSASQNGMSVECR [ARID4B] | -0.276 | 0.0721 | 48.4 | 49.6 | 0.255 | 0.983
